# According to the DeepSol protein solubility set:
# Test: soluble on expression in E. coli; label from the status in PepcDB or PDB records
row,Sequence,soluble on expression in E. coli
1,MQASELTPKWYVAPVSIKDEAVVKNLKAKIQALGFNHEIVDVKVLKEREVHEEVYSLKSGKLPRSLKNTTFNKWFVLDDYRYLRVKISEKNLLGRYIYIKMIYSEDAWRIVRNFPGITGIVGSSGRGALPIPLDEKDANNLEQMLKGISINPSKRIMLTNTAIIEMDSDKFDEKFQYILKQKQAIQKPKEDEDSEIVDAEKLKEAFKKLQNSQEQDEWKEKATIIQSEQTKLDPSVLVPFLGKYEILDTDNKVEQLFEFSVGNLVEVHLTDTIHVQGQIKALYQGTVNKAVVEIELTSKTQLINLPLENLSFVEFE,soluble
2,MGSDKIHHHHHHMSHRKALLIHNGNAANKNIEKALGAVVPVLSHHLDEVIIKQTKKKDHAYHFCRSIDDSVDTVFILGGDGTIHQCINAISALERKPAVGILPGGTSNDFSRVLGIPQNLAKAAEALMAGKKTSVDVCQMNDRYFLNFWGIGLIAETSNQINETEKALLGKISYFTSALRTVSSAASFPMTLKIDGEEIKEEAVMLLVMNGQYIGTNRIPLPDASIEDGLLDVLICRNTNLTALRELMSMEQGSIDRFTGELSYVQASRIEIETDTAKKADMDGEVYTHTPAVIQVLPQHIDMLVPANE,not soluble
3,SSNAKFDQFSSDFQTFNAKFDQFSNDMNAFRSDFQAFKDDFARFNQRFDNFATKYR,soluble
4,VVQAPTQVPGFLGDSVTLPCYLQVPNMEVTHVSQLTWARHGESGSMAVFHQTQGPSYSESKRLEFVAARLGAELRDASLRMFGLRVEDEGSYTCLFVTFPQGSRSVDIWLRVLAKPQNTAEVQKVQLTGEPVPMARCVSTGGRPPAQITWHSDLGGMPQTSQVPGFLSGTVTVTSLWILVPSSQVDGKQVTCKVEHESFEKPQLLTVSLTVYY,soluble
5,LINETSRRLNQRLTLTDTMNDLAVRMAESFQAEEVGFFHIDHFENLTLLPGSTAFFKEAKPSDFYNELKEKLYEGEKGVFIGNGQSVFGKAGYGSLMAAPMIQNDRLLGFAVLLKQELYAFTFEMYKLFQALIHHATLAVTNSMLRDRLE,soluble
6,MSLGLGSSNRQTDDWNAKLYDERHRFVSAYGEDLIQWLAPKEGECVLDLGCGTGDLTEQIHQLGSRVIGVDVSESMIEQAKGKFPHLDFQVAEATDLSFSEKFDAIFSNAVLHWIKDAEEALTVIYRSLKPGGRFVAEFGGKGNVETIVNTLADTMSQADSRWSKEELPWFFPSIGQYTSLMEQVGFRVTHALHFNRPTLLEDGDGIRHWLAMFAESVLEGKSETERAEIVRFVEAEVKDALFDGTNWWADYKRIRVVGMKQEGHHHHHH,not soluble
7,MTEEMNQIDVQVPEVGDVVKGIVTKVEDKHVDVEIINVKQSGIIPISELSSLHVEKASDVVKVDDELDLKVTKVEDDALILSKRAVDADRAWEDLEKKFETKEVFEAEVKDVVKGGLVVDIGVRGFIPASLVEAHFVEDFTDYKGKTLSLLVVELDRDKNRVILSHRAVVESEQANKKQELLQSLEVGSVLDGKVQRLTDFGAFVDIGGIDGLVHISQLSHSHVEKPSDVVEEGQEVKVKVLSVDRDNERISLSIKDTLPGPWNQIGEKVKPGDVLEGTVQRLVSFGAFVEILPGVEGLVHISQISNKHIGTPHEVLEEGQTVKVKVLDVNENEERISLSMRELEETPKADQEDYRQYQAKEETSTGFQLGDLIGDKLNKLKLEHHHHHH,soluble
8,MPASYAYLGPEGTFTEVALRTLPEAATRELVPMVSVPAALDAVRNGEAEAAFVPIENSVEGGITTTLDELVAGEPLMIYREVLLSITFALLVRPDTKLSEIKTVTAHPAAQPQVRNWMKANLPDVVWESAASNADGARLVQEGRYDAAFAGEFAAAKYGLVPLETGIHDAENAQTRFVLVGRPAR,not soluble
9,MASSTVPVSAAGSANETPEIPDNVGDWLRGVYRFATDRNDFRRNLILNLGLFAAGVWLARNLSDIDLMAPQPGV,not soluble
10,MSRQAKDDFLRHYTVSDPRTHPKGYTEYKVTAQFISKKDPEDVKEVVVWKRYSDFRKLHGDLAYTHRNLFRRLEEFPAFPRAQVFGRFEASVIEERRKGAEDLLRFTVHIPALNNSPQLKEFFRGGEVTRPLEVSRDLHILPPPLIPTPPPDDPRLSQLLPAERRGLEELEVPVDPPPSSPAQEALDLLFNCESTEEASGSPARGPLTEAELALFDPFSKEEGAAPSPTHVAELATMEVESARLDQEPWEPGGQEEEEDGEGGPTPAYLSQATELITQALRDEKAGAYAAALQGYRDGVHVLLQGVPSDPLPARQEGVKKKAAEYLKRAEEILRLHLSQLPP,soluble
11,MASKPGERKTQILHTLAEMLEQPHAARITTSALAARMQVSEAALYRHFASKAQMFEGLIEFIETSIFTVVNQIAVSEPYGMGQARKTVAMLLAFAERNRGITRVLTGDALVTEDNRLQERINHINDRIEASLKQCLRVAVSDGALPADANIAAHASLLTHLVLGRWLRYAQSGWRVAPTTHLEEHLRLALG,not soluble
12,DYKDDDDKVKLYKTNKYGTLYKSESASFTANTDIITRLTGPFRSMPQSGVLRKGLTIKYDEVMKQDGHVWVGYNTNSGKRVYLPVRTWNESTGELGPLWGTIK,soluble
13,MGSDKIHHHHHHMRIDLSLKPTPVQFLKRLSEKYGFNIYVKRDDLTELVGSGNKIRKLEYLLWEALKKGATTVFTCGGLQSNHARATAYVSRRYGLKPVLFLRKGEKVLNGNLLLDILLGAEIVEVSPEEYERIDEIFDVHKKMREKKGEKVYVIPEGGSNSLGAFGYFNAVLEMKDQLNLESFDAIVCAVGSGGTIAGLSAGISFLEYHVPVVGVNVTTKNSDYFVGKVKRIISGMEEYGLRVNETVFEVVDDYRGPGYAIPSSEDVEILKEVASIEGIILDPVYTAKAFRGMIEMFRNSEKNVLFIHTGGIFGLFAQSRRLV,not soluble
14,MKLAAKTFTPSTADLPFTDAGASEDSGMANKPGEPAFQLWLDVKKVVFPTTSEPSYVNLRLHNPTDKRITFKVRCTSAELFRVQPPIAFINAGATVNLVMWSANTHLQPEKKHYFAFYHKNASPSARQSPPLWKDGLKDAEGVRRIPVVFLPPSS,not soluble
15,MGSDKIHHHHHHMTMLSTPQPTLADLAIEPGLPTVVSPRAGAAISLEEAAPLLRAIVDDTLERAGGVLFTGFHVASIDAFQSFAGSFGHPLIGYEFASTPRSQVEGAVYTSTEYPPHRSIPLHNEQSYTREWPLRIWFHCALAARSGGATPIADSRAIYRALDPALVDRFAKRELLYVRNFGQGLDLPWEQAFGSADPRTVERICRARGIECEWRDSEDGELLLRTRERCQAVARHPRTGEHVWFNQANLFHLSSLDEDMQEALIDSVGLENVPRNVYYGDGEPLEADALAEIRGVLDQQRIVFPWLTGDVLMLDNMLSAHARDPFEGPRKVVVAMARSYSEAEGEKRTAAP,not soluble
16,MSNVMDLNLIQTFLVVAEFQSYTKAAEQLGLTQPAVSAAIKRLEQVVDKQLFVKKGRGITLTSAAYQLLPQFEQAVSIIDNAIMEKKHFEVCCSEILLHIMSPIKNAIFYESPPEKYILFELLRQQKVDLVIDTVVTKDAAFVMEEAYEEKAVIICREQHPRIQGTLSKEQFYDETHCLFSGKWNNMSGFEQLAQETILER,not soluble
17,MQDIRDLTAVLRSKTPIVVIETYEEYRVVDMLKRIANVLYQPLFTWSITQGLTRVDKPMPAQKFNTEPGDILGQIKATTQQGIYVLCDFHPFVVEAPKNVRLLKEIALEYDALQHTLVLVSHAFEIPPEIKRYCAYFQLTLPSTSQLENLIYLEVDKVRTQGIPLNVDDKAVVKLAENLRGVTLDDARRLIHKAIVDDGAITHSDVDLINKAKFQLLDLNGILQFEYDTSDFSQIAGLHNLKKWLKQRAPAAHSPQGVSAAAQIDTPKGVLLLGVQGSGKSLAAKAVAGVWQRPLLRLDMGALYNKYIGETEKNLRNALELADMMSPCILWIDEIEKGLSGSNSDQGISTRILGTLLTWMAERKSEVFVVATANDIQALPPELMRKGRMDEIFFVDLPDETIRKAIFLIHCQRRGIDVSRLDLAQLSRHSQGFSGAEIEQAVIAAMYSARSLGRTLDQDLLLEELTKTRPLSIVMGDKINALRQWAAGRTVNAHELEHHHHHH,soluble
18,MVNSTTLAHLNTNIDHLTTVLSSYAGRDKAIRSLAFYLQLKSTTSPDNAKEILGLAKQLSAARLVSRQFNHPGMLKSCRQIMQAFQTGRIGDPLEFLTGAAVTGIYTVYGFVELLAWLSDAKILAFNSARLYKWCLYLWLSELINGIVRQMRVIYRKGIEKSQEDILTLVGLSSDFISGVNSLPHKILWAGKLSMRQSASFSLLASIIGFYKLW,not soluble
19,SSSESEKDKERLIQAAKLFFFHIRDLVSFINRFVELFNLTMKTQILPMNLNEESCIKDFFEQMIRNFKEMQLMVDGKHKQMQKEPLCSKVLTAMTSAVEKCATIAPHHTAEDMLRNIQTSGAALVLKTSHVLVNLETSLSLLMQFPIMGLRLSDLYREETKEQSDATSDATTSEKNKSPECPKATTEETLRKLQDVLSPENAHTPVEAAADELEQFVKSMEITLQVLQKSIKTMEGDIFVLTQVQGK,soluble
20,MDLIAPEDVVVTLSHAGYAKRQPVSAYRAQRRGGRGRSAASTKEEDFIDQLWLVNTHDTLLTFTSSGKVFWLPVHQLPEAGSNARGRPIINWIPLESGERVQAVLPVREYADNRYVFMATRNGTVKKTPLSEFAFRLARGKIAINLDEGDALVGVALTDGDRDVLLFASNGKTVRFGESTVRSMGRTATGVRGIRLAKGEEVVSLIVSERAGGVEDEVEDESAEEVVETTDGAEPAVIDVADNGDVAYILTATENGYGKRTPLAEYPRKGRGTQGVIGIQTTERNGKLVRAVLLGSTDEVMLISDGGTLVRTRGSEISRVGRNTQGVTLIRLSKGEKLQAVERLDASLEEPEDVVDEAVAITSDAPPAEG,soluble
21,MAKYHDIASPAYILEEDLLRRNLSLIASVADRTGVEIILAFKAYALWRTFPIIREYVPHSTASSVWEARLAFEEMGAPAHTFSPAYTPEEFPEILRYSSHVTFNSLSQYYLLSPMVKNVGVSLGLRINPEYSAVETALYNPCAPGSRFGVSASELGDTLPEGIEGLHFHTLCESTGYELEKTLKIIEDRFASVLEQA,not soluble
22,QGDIGIDNLRNFYTKKDFVDLKDVKDNDTPIANQLQFSNESYDLISESKDFNKFSNFKGKKLDVFGISYNGQSNTKYIYGGVTATNEYLDKSRNIPINIWINGNHKTISTNKVSTNKKFVTAQEIDVKLRKYLQEEYNIYGHNGTKKGEEYGHKSKFYSGFNIGKVTFHLNNNDTFSYDLFYTGDDGLPKSFLKIYEDNKTVESEKFHLDVDISYKA,soluble
23,MAHHHHHHMRLTASRALLQQAGEMCTALHWMCRIAARVPESGLSGSQLQALLDDEFPSFSPSEVGAVTLKEAVLRFPELLSVEDGSQLQAKWRVRPTHAHKTQEQRASPSSKPTETYTLPMMKLQQFCTKRARMHRNTYMPLEYVLSKADITDVNIVGEVLHNPDAALDVQAGVRIKPKRTPRAVVAFVDGDALPAVAVDEMCNELNVLKESSIVTIVRQPGSHELSAVDIVCPDVIPTYLSIEKHAHELRLRRPNVRHDVVYMCAASQFNIYADRVALLNDFPDADVYVCCPSMIALVKPKKVIPFE,soluble
